Patent publication US20220194997A1 (CHINESE UNIVERSITY OF HONG KONG, published 2022)

T1: SUMO1(15-55) (human, Where it is the MST target, it carries Alexa Fluor 647 NHS ester on amines (NHS-647); the letters do not show this.)
T1 construct: Fragment 15-55 of human SUMO1; Recombinant SUMO1 fragments were made with an N-terminal His-tag removed by thrombin; also called SUMO(15-55); SUMO1(15-55) peptide
T1 peptide: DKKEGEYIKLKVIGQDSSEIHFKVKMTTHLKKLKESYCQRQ


Key:
[1] = biological target: T1, SUMO1(15-55); test: MST; NHS-647 labelled SUMO1(15-55) as target, peptide titrated as ligand
Description: The labelling reaction was performed according to the manufacturer's instructions. Unreacted dye was removed with the dye removal column supplied in the Protein Labelling Kit RED-NHS (NanoTemper Technologies) or desalting column (Bio-Rad). The purity was monitored by measuring the ratio of protein to dye (for example, spectroscopically by measuring absorption at 280 nm for protein and 650 nm for the dye; molar absorbance: 239,000 M⁻¹ cm⁻¹) after the clean-up procedure. The labelled targets were adjusted to appropriate concentration for detection. The ligands were dissolved in reaction buffer and a series of 16 1:1 dilutions was prepared. For the measurement, each ligand dilution was mixed with one volume of labelled protein target. After 10 min incubation, the samples were loaded into standard or premium Monolith NT.115 Capillaries (NanoTemper Technologies). MST was measured using a Monolith NT.115 instrument (NanoTemper Technologies) at an ambient temperature of 25° C. Instrument parameters were adjusted to 20% LED power and medium MST power. Data of three independently pipetted measurements were analyzed (MO.Affinity Analysis software version 2.1.3, NanoTemper Technologies) using the signal from an MST-on time of 5 s.

[2] = biological target: human wild-type α-synuclein (full-length) (human, UniProt P37840 1-140); test: MST (FIG. 7)
[3] = biological target: T1, SUMO1(15-55); test: MST (FIG. 11b)
Description: Unreacted dye was removed with desalting column (2K MWCO, Bio-Rad). The purity was monitored by measuring the ratio of protein to dye after the clean-up procedure. The labelled targets were adjusted to appropriate concentration for detection and kept in ddH2O with 0.1% Tween 20, meanwhile, the ligands were maintained in corresponding buffer (peptides: ddH2O; α-synuclein proteins: 20 mM HEPES, 150 mM NaCl, pH 7.4). For each assay, unlabelled ligand was mixed with equal volume of labelled protein target at 16 different serially diluted concentrations at room temperature.

Kd [1] [nM]	Binder	further results
1150	EGVLYVGSKTK (Synthesized peptide fragment of α-synuclein; also called β1 strand peptide; β1-strand peptide-αsyn (35-45)) [αsyn(35-45)]	
2210	VTAVAQKTVEG (Peptide fragment of α-synuclein; also called β4 strand peptide) [αsyn(74-84)]	
	SSEIHFKVKMTTHLKKLKESYCQRQ (also called SUMO(31-55)) [SUMO1(31-55)]	binding result [2]: binds
	VVHGVATVAEKTK (Synthesized peptide; also called β2-strand peptide αsyn(48-60); SIM 2 (residues 48-60)) [αsyn(48-60)]	binding result [3]: binds
